Test results: patent publication US20090075340A1

Target: HLA-Cw4 on LCL 721.221-Cw4 cells (human)
Assay: cell-based or functional assay

How did the killing of LCL 721.221-Cw4 cells by YTS-2DL1 in the absence of any anti-KIR mAb turn out when “KIR2DL1 expressed on YTS-2DL1 NK cells (from UniProt P43626 22-348)” was run?
The killing of LCL 721.221-Cw4 cells by YTS-2DL1 in the absence of any anti-KIR mAb was 5%.
